# From patent publication US6773918B2, “Detection of phenols using engineered bacteria” (The Regents of the University of California, priority 1999, dated 2004)
# How the values were obtained:
# [1] = system: Pdmp-lacZ reporter fusion; assay: Liquid β-galactosidase assay, test strain AW101 (Pdmp-lacZ fusion) carrying pAW50 dmpR derivatives, exposed to phenols; assay type: cell-based, E. coli
# From the text: Reference will now be made in detail to the present preferred embodiments of the present invention, examples of which are shown in the accompanying drawings. Turning now to FIG. 1, the dmpR wt-N gene (See, e.g., Shingler and Moore, supra) carried on plasmid pAW50 served as the template for amplification of the dpmR sensor domain by mutagenic polymerase chain reaction (PCR). The products resulting from the mutagenic PCR were digested using Ndel and SacII and ligated back into a pAW50 plasmid fragment, from which the wild type Ndel-SacII region had been removed. […] Ligation products were electroporated into AW101 (trp::Pdmp-lacZ fusion). Transformants were initially selected for tetracycline resistance and then replicated onto plates containing X-gal and one of the test phenols. Colonies that developed more blue color than colonies containing wild type DmpR were selected for further analysis with liquid β-galactosidase assays. β-galactosidase activity is proportional to transcription of the Pdmp-lacZ reporter fusion and is, therefore, a measure of particular variant DmpR's ability to detect phenol or specific substituted phenols. This mutagenic procedure led to the identification of more than twenty DmpR derivatives with altered response to phenols. Five of these derivatives are representative of proteins which show significant promise as effective detectors of phenols listed as primary pollutants by the U.S. Environment Protection Agency.
# AW101 was used as a test strain to identify and characterize changes in DmpR's sensing capacity subsequent to sensor domain mutagenesis. pAW50 derivatives were electroporated into AW101 and transformants were selected on Luria-Bertani (Difco, Detroit, Mich.) plates containing 10.5 μg/ml tetracycline. Transformants were then replica-plated onto M9 minimal medium (10) plates containing 0.2% glucose, 30 μg/ml tryptophan, 1 μg/ml thiamine, 10.5 μg/ml tetracycline, 0.25% 5-bromo-4-chloro-3-indoyl-β-D-galactoside (X-Gal), and either no inducer (NI) or 0.05 mM of a phenol derivative. Cells that formed blue colonies on plates containing a phenol derivative were subject to liquid β-galactosidase assays.
# D. β-Galactosidase Assays. Overnight cultures of AW101 carrying pAW50 derivatives were diluted 1000-fold into Luria-Bertani broth containing 10.5 μg/ml tetracycline. When cells reached an OD595 nm between 0.60 and 0.90 as measured on a Lambda Bio uv/vis spectrophotometer (Perkin Elmer Corp. Analytical Instruments, Norwalk, Conn.), 500 μL samples were pelleted and immediately resuspended in 500 μL spent Luria-Bertani broth containing the appropriate phenol compound. […] Samples were pelleted and frozen at −70° C. for assay the following day.
# Liquid β-galactosidase assays were performed using a modification of Miller's assay (Miller, J. H., 1972. “Experiments in Molecular Genetics,” Cold Spring Harbor Laboratory, Cold Spring Harbor, N.Y.). Cell sample pellets were thawed and resuspended in Z buffer. The optical density at 595 nm of each cell suspension was read in a microtiter plate using an automated microplate reader (BIO-TEK Instruments, Inc., Winooski, Vt.). Following the addition of 15 μL 0.1% sodium dodecyl sulfate and 25 μL HCCl3, the remaining cell suspension was vortexed for 30 s to lyse cells. The reaction was begun with the addition of 50 μL o-nitrophenyl-β-D-galactopyranoside (2.5 mg/ml) to the lysed cells. Reactions were incubated at 26° C. until stopped with the addition of 50 μL 1M Na2CO3. Color development of the reactions was read at OD415 on the microplate reader. Arbitrary units for graphing purposes were calculated as (1000×OD415)/(time)(OD595) where time is the reaction time in minutes. Equivalent cell volumes were read for both optical densities.
# [2] = system: Pdmp-lacZ reporter fusion; assay: β-galactosidase detection of phenols in contaminated soil by the bacterial test strain; assay type: cell-based, E. coli
# From the text: FIG. 5a compares the detection of 2,4-dichlorophenol by DmpR-B9 (SEQ ID No. 1 hereof) with that for unsubstituted phenol shown in FIG. 5b in contaminated soil, unsubstituted phenol being a natural effector of wild type DmpR. Detection of chemicals in contaminated soil is often difficult because soil may bind the phenols, making them less available to the test bacteria. […] The response of DmpR-B9 to 4 parts per million (ppm) 2,4-dichlorophenol in soil is six-fold higher than that of wild type DmpR. DmpR-B9′s response to 2.5 ppm phenol is four-fold better than that of wild type.
molecule,measurement,setting,value
DmpR-B21: engineered DmpR derivative with mutated sensor domain (SEQ ID No. 3 and No. 9) (protein) MPIKYKPEIQHSDFKDLTNLIHFQSMEGKIWLGEQRMLLLQFSAMASFRREMVNTLGIERAKGLFLRHGYQSGLKDAELARKLRPNASEVGMFLAGPQMHSLKGLVKVRPTGLDIDKEYGRFYAEMEWIDWFEVEICQTDLGQMQDPVCWTVLGYACAYSSAFMGREIIFKEVSCRGCGG,increase in β-galactosidase activity,[1]; 0.0025 mM solution of 2-chlorophenol (0.3 parts per million),60 fold
same,response (β-galactosidase activity),"[1]; 2,4-dichlorophenol at 0.025 mM (4 parts per million)",elicits a response
DmpR-B23: engineered DmpR derivative with mutated sensor domain (SEQ ID No. 4) (protein) MPIKYKPEIRHSDFKDLTNLIHFQSMEGKIWLGEQRMLLLQFSAMASFRREMVNTLGIERAKGLFLRHGYQSGLKDAELARKLRPNASEVGMFLAGPQMHSLKGLVKVRPTELDIDMEYGRFYAEMEWIDWFEVEICQTDLGQMQDPVCWTVLGYACAYSSAFMGREIIFKEVSCRGCGG,response relative to wild type DmpR,"[1]; 0.5 ppm 2-chlorophenol, four-hour exposure",more than 20 fold
same,effect of four-hour exposure on detection signal (β-galactosidase activity units),[1]; low concentrations of 2-chlorophenol,increases the detection signal
same,detection compared with wild type protein,"[1]; six concentrations of 2-chlorophenol, 60 minute exposure",significantly better detectors
DmpR-D12: engineered DmpR derivative with mutated sensor domain (SEQ ID No. 7) (protein) MPIKYKPEIQHSDFKDLTNLIHFQSMEGKIWLGEQRMLLLQFSAMASFRREMVNTLGIERAKGLFLRHGYQSGLKDAELARKLRPNASEVGMFLAGPQMHSLKGLVKVRPTELDIDKEYGRFYAEMEWIDWFEVEICQTDPGQMQDPVCWTVLGYACAYSSAFMGREIIFKEVSCRGCGG,detection relative to wild type DmpR,"[1]; 3 ppm 2,4-dichlorophenol",10 fold
same,detection relative to wild type DmpR,[1]; 10 ppm 4-chloro-3-methylphenol,eight
DmpR-B31: engineered DmpR derivative with mutated sensor domain (SEQ ID No. 5) (protein) MPIKYKPEIQHSDFKDLTNLIHFQSMEGKIWLGEQRMLLLQFSAMASFRREMVNTLGVERTKGLFLRHGYQSGLKDAELARKLRPNASEVGMFLAGPQMHSLKGLVKVRPTELDIDKEYGRFYAEMEWIDWFEVEICQTDLGQMQGPVCWTVLGYACAYSSAFMGREIIFKEVSCRGCGG,response to most substituted phenols,"[1]; 2,4-dichlorophenol, 2,4-dimethylphenol, 4-nitrophenol (FIG. 6a)",strong response
same,uninduced (NI) value,[1]; no inducer (no phenol),relatively high
DmpR-B17#2: engineered DmpR derivative with mutated sensor domain (SEQ ID No. 2) (protein) MPIKYKPEIQHSDFKDLTNLIHFQSMEGKIWLGEQRMLLLQFSAMASFRREMVNTLGIERAKGLFLRHGYQSGLKDAELARKLRPNASEVGMFLAGPQMHSLKGLVKVRPTELDIDKEYGRFYAEMEWIDWFEVEICQTDLGQMQDPVCWTVLGYACAYSSAFMGREIIFKEVSCRGCGG,response to low concentrations of phenol,"[1]; 2,4-dichlorophenol",responds to low concentrations
same,response to low concentrations of phenol,[1]; 2-nitrophenol,responds to low concentrations
same,response to low concentrations of phenol,[1]; 4-nitrophenol,responds to low concentrations
same,detection compared with wild type protein,[1]; six concentrations of 4-chloro-3-methylphenol,significantly better detectors
DmpR-D9: engineered DmpR derivative with mutated sensor domain (SEQ ID No. 6) (protein) MPIKYKPEIQHSDFKDLTNLIHFQSMEGKIWLGEQRMLLLQFSAMASFRREMVNTLGIERAKGLFLRHGYQSGLKDAELARKLRPNASEVGMFLAGPQMHSLKGLVKVRPTELDIGREYGRFYAEMEWIDWFEVEICQTDLGQMQDPVCWTVLGYACAYSSALMGREIIFKEVSCRGCGG,response relative to wild type protein,[1]; 2-chlorophenol,nineteen
DmpR-B9: engineered DmpR derivative with mutated sensor domain (SEQ ID No. 1) (protein) MPIEYKPEIQHSDFKDLTNLIHFQSMEGKIWLGEQRMLLLQSSAMASFRREMVNTLGIERAKGLFLRHGYQSGLKDAELARKLRPNASEVGMFLAGPQMHSLKGLVKVRPTELDIDKEYGRFYAEMEWIDWFEVEICQTDLGQMQDPVCWTVLGYACAYSSAFMGREIIFKEVSCRGCGG,response relative to wild type,[2]; 2.5 ppm phenol in soil,four
same,response relative to wild type DmpR,"[2]; 4 parts per million (ppm) 2,4-dichlorophenol in soil",six
same,capacity to detect phenols in soil compared with wild type protein,[2]; contaminated soil,significantly better
